Measured values as given in patent publication US20040091887.

Target: T1, bovine fibrinogen, P02672
T1 chain 1: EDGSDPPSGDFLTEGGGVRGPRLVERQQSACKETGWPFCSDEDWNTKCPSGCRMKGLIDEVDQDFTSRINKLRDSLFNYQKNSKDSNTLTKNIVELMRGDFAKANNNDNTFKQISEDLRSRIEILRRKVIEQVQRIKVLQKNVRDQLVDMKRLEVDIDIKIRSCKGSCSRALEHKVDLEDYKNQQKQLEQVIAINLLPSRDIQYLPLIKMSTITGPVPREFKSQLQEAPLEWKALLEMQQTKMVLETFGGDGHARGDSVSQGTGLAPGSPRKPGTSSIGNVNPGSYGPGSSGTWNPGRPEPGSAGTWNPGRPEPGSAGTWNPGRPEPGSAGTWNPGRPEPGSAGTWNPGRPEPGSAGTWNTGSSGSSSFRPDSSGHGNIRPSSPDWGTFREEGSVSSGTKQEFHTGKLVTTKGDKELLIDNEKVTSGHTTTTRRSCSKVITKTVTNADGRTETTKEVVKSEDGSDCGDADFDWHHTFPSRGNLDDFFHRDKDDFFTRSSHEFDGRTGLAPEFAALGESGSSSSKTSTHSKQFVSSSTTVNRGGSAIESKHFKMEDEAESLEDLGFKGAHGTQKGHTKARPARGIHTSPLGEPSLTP
T1 chain 2: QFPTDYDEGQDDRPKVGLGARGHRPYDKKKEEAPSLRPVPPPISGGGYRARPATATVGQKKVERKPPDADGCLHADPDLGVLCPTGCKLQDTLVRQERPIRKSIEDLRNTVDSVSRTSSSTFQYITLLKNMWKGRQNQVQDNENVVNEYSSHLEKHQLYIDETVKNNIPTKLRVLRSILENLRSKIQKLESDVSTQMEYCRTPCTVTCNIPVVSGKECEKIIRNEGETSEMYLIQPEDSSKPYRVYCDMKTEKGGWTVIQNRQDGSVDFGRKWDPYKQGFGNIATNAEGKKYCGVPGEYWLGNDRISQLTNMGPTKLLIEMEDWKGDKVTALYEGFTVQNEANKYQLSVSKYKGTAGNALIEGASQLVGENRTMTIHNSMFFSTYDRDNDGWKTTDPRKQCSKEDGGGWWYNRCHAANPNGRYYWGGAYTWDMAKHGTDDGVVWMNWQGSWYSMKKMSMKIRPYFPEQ
T1 chain 3: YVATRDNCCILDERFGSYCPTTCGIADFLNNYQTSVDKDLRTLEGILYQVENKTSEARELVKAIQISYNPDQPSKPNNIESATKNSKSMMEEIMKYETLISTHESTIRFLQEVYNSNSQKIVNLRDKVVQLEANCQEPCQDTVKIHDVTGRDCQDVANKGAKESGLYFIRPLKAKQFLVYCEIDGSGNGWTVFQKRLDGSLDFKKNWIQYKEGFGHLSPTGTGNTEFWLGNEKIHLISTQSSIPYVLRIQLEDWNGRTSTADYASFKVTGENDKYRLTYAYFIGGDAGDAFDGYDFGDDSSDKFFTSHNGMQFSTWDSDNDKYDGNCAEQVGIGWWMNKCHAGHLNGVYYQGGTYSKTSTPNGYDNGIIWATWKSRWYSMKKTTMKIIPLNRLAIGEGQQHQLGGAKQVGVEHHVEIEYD

B1: recombinant fibrinlysin protein (protein)
chain: EQQRFPQRYIKLAIVVDHGMYTKYSSNFKKIRKRVHQMVSNINEMCRPLNIAITLALLDVWSEKDFITVQADAPTTAGLFGDWRERVLLKKKNHDHAQLLTDTNFARNTIGWAYVGRMCDEKYSVAVVKDHSSKVFMVAVTMTHELGHNLGMEHDDKDKCKCDTCIMSAVISDKQSKLFSDCSKDYYQTFLTNDNPQCILNAP
  dose-dependent fibrinogenolytic assay in vitro: amount for complete digestion of the A alpha chain: the Aα-chain of fibrinogen was completely digested with 4 µg of the refolded protein
  dose-dependent fibrinogenolytic assay in vitro: amount for complete digestion of the B beta chain: The Bβ-chain was completely digested with 7 µg of the refolded protein
  dose-dependent fibrinogenolytic assay in vitro: amount for complete digestion of the gamma chain: The γ-chain also was completely digested with 21 µg of the refolded protein
  time-dependent fibrinogenolytic assay in vitro: time to complete digestion of the A alpha chain: the Aα-chain of fibrinogen was completely digested at 5 hr after incubation
  time-dependent fibrinogenolytic assay in vitro: time to complete digestion of the B beta chain: The Bβ-chain was completely digested after 7 hrs
  time-dependent fibrinogenolytic assay in vitro: time to complete digestion of the gamma chain: the γ-chain was completely digested after 30 hrs

B2: Mucroslysin recombinant fusion protein (protein)
chain: SSIILESGNVNDYEVVYPRKVSALPKGAVQPKYEDAMQYEFKVNGEAVVLHLEKNKGLFSEDYSETHYSPDGREITTYPSVEDHCYYHGRIHNDADSTASISACDGLKGYFKLQGETYPIEPLELSDSEAHAVFKYENVEKEDEAPKMCGVTQNWESDESIKKASQLYLTPEQQRFPQRYIKLAIVVDHGMYTKYSSNFKKIRKRVHQMVSNINEMCRPLNIAITLALLDVWSEKDFITVQADAPTTAGLFGDWRERVLLKKKNHDHAQLLTDTNFARNTIGWAYVGRMCDEKYSVAVVKDHSSKVFMVAVTMTHELGHNLGMEHDDKDKCKCDTCIMSAVISDKQSKLFSDCSKDYYQTFLTNDNPQCILNAPLRTDTVSTPVSGNEFLEAGEECDCGSPENPCCDAATCKLRPGAQCAEGLCCDQCRFKKKRTICRRARGDNPDDRCTGQSADCPRNGLYG
  fibrinogenolytic assay, cleavage pattern on 10% SDS-PAGE: cleavage of the gamma chain: Mucroslysin protein also exhibited the ability to cleave the γ-chain of fibrinogen
  fibrinogenolytic assay, cleavage pattern on 10% SDS-PAGE: start of digestion of the B beta chain: the digestion of the Bβ-chain began at 18 hr
  fibrinogenolytic assay, cleavage pattern on 10% SDS-PAGE: time to complete digestion of the A alpha chain: The Aα-chain of fibrinogen was completely digested at 18 hr after incubation
  fibrinogenolytic assay, cleavage pattern on 10% SDS-PAGE: time to complete digestion of the B beta chain: The Bβ-chain was completely digested after 36 hrs
